Literature values in patent US20070032640A1, “Cytokine receptor” (priority 2001, published 2007).

Tests used:
[1] = test system: IL-6; conditions: cited from earlier work; for Binding: IL-6 binding of IL-6R mutant, relative to wild type
[2] = test system: gp130 signalling; conditions: cited from earlier work; for Signalling: gp130 signalling of IL-6R mutant, relative to wild type

B1: C192: IL-6R with C192 mutated to alanine (protein, UniProt P08887 20-468, looked up, variant C192A)
Interleukin-6 receptor …: LAPRRCPAQEVARGVLTSLPGDSVTLTCPGVEPEDNATVHWVLRKPAAGSHPSRWAGMGRRLLLRSVQLHDSGNYSCYRAGRPAGTVHLLVDVPPEEPQLSCFRKSPLSNVVCEWGPRSTPSLTTKAVLLVRKFQNSPAEDFQEPCQYSQESQKFSCQLAVPEGDSSFYIVSMCVASSVGSKFSKTQTFQGAGILQPDPPANITVTAVARNPRWLSVTWQDPHSWNSSFYRLRFELRYRAERSKTFTTWMVKDLQHHCVIHDAWSGLRHVVQLRAQEEFGQGEWSEWSPEAMGTPWTESRSPPAENEVSTPMQALTTNKDDDNILFRDSANATSLPVQDSSSVPLPTFLVAGGSLAFGTLLCIAIVLRFKKTWKLRALKEGKTSMHPPYSLGQLVPERPRPTPVLVPLISPPVSPSSLGSDNTSSHNRPDARDPRSPYDISNTDYFFPR
- binding of IL-6 to IL-6R (in words) ([1]; mutated to alanine): slightly increased
- signalling (in words) ([2]; mutated to alanine): slightly increased

B2: R231: IL-6R RL-SI double mutant at R231 and L232 (protein, UniProt P08887 20-468, looked up, variant R231S L232I)
Interleukin-6 receptor …: LAPRRCPAQEVARGVLTSLPGDSVTLTCPGVEPEDNATVHWVLRKPAAGSHPSRWAGMGRRLLLRSVQLHDSGNYSCYRAGRPAGTVHLLVDVPPEEPQLSCFRKSPLSNVVCEWGPRSTPSLTTKAVLLVRKFQNSPAEDFQEPCQYSQESQKFSCQLAVPEGDSSFYIVSMCVASSVGSKFSKTQTFQGCGILQPDPPANITVTAVARNPRWLSVTWQDPHSWNSSFYSIRFELRYRAERSKTFTTWMVKDLQHHCVIHDAWSGLRHVVQLRAQEEFGQGEWSEWSPEAMGTPWTESRSPPAENEVSTPMQALTTNKDDDNILFRDSANATSLPVQDSSSVPLPTFLVAGGSLAFGTLLCIAIVLRFKKTWKLRALKEGKTSMHPPYSLGQLVPERPRPTPVLVPLISPPVSPSSLGSDNTSSHNRPDARDPRSPYDISNTDYFFPR
- Binding [1]: 0%

B3: E278: IL-6R EF-AI double mutant at E278 and F279 (protein, UniProt P08887 20-468, looked up, variant E278A F279I)
Interleukin-6 receptor …: LAPRRCPAQEVARGVLTSLPGDSVTLTCPGVEPEDNATVHWVLRKPAAGSHPSRWAGMGRRLLLRSVQLHDSGNYSCYRAGRPAGTVHLLVDVPPEEPQLSCFRKSPLSNVVCEWGPRSTPSLTTKAVLLVRKFQNSPAEDFQEPCQYSQESQKFSCQLAVPEGDSSFYIVSMCVASSVGSKFSKTQTFQGCGILQPDPPANITVTAVARNPRWLSVTWQDPHSWNSSFYRLRFELRYRAERSKTFTTWMVKDLQHHCVIHDAWSGLRHVVQLRAQEAIGQGEWSEWSPEAMGTPWTESRSPPAENEVSTPMQALTTNKDDDNILFRDSANATSLPVQDSSSVPLPTFLVAGGSLAFGTLLCIAIVLRFKKTWKLRALKEGKTSMHPPYSLGQLVPERPRPTPVLVPLISPPVSPSSLGSDNTSSHNRPDARDPRSPYDISNTDYFFPR
- Binding [1]: 0%

B4: F134: IL-6R F-L mutation at F134 (protein, UniProt P08887 20-468, looked up, variant F134L)
Interleukin-6 receptor …: LAPRRCPAQEVARGVLTSLPGDSVTLTCPGVEPEDNATVHWVLRKPAAGSHPSRWAGMGRRLLLRSVQLHDSGNYSCYRAGRPAGTVHLLVDVPPEEPQLSCFRKSPLSNVVCEWGPRSTPSLTTKAVLLVRKLQNSPAEDFQEPCQYSQESQKFSCQLAVPEGDSSFYIVSMCVASSVGSKFSKTQTFQGCGILQPDPPANITVTAVARNPRWLSVTWQDPHSWNSSFYRLRFELRYRAERSKTFTTWMVKDLQHHCVIHDAWSGLRHVVQLRAQEEFGQGEWSEWSPEAMGTPWTESRSPPAENEVSTPMQALTTNKDDDNILFRDSANATSLPVQDSSSVPLPTFLVAGGSLAFGTLLCIAIVLRFKKTWKLRALKEGKTSMHPPYSLGQLVPERPRPTPVLVPLISPPVSPSSLGSDNTSSHNRPDARDPRSPYDISNTDYFFPR
- Binding [1]: >100%
- Signalling [2]: 70%

B5: F-Y mutant: IL-6R F-Y mutant at F168 (protein, UniProt P08887 20-468, looked up, variant F168Y)
Interleukin-6 receptor …: LAPRRCPAQEVARGVLTSLPGDSVTLTCPGVEPEDNATVHWVLRKPAAGSHPSRWAGMGRRLLLRSVQLHDSGNYSCYRAGRPAGTVHLLVDVPPEEPQLSCFRKSPLSNVVCEWGPRSTPSLTTKAVLLVRKFQNSPAEDFQEPCQYSQESQKFSCQLAVPEGDSSYYIVSMCVASSVGSKFSKTQTFQGCGILQPDPPANITVTAVARNPRWLSVTWQDPHSWNSSFYRLRFELRYRAERSKTFTTWMVKDLQHHCVIHDAWSGLRHVVQLRAQEEFGQGEWSEWSPEAMGTPWTESRSPPAENEVSTPMQALTTNKDDDNILFRDSANATSLPVQDSSSVPLPTFLVAGGSLAFGTLLCIAIVLRFKKTWKLRALKEGKTSMHPPYSLGQLVPERPRPTPVLVPLISPPVSPSSLGSDNTSSHNRPDARDPRSPYDISNTDYFFPR
- Signalling [2]: mutant signals at 50%

B6: W214: IL-6R W-Q mutant at W214 (protein, UniProt P08887 20-468, looked up, variant W214Q)
Interleukin-6 receptor …: LAPRRCPAQEVARGVLTSLPGDSVTLTCPGVEPEDNATVHWVLRKPAAGSHPSRWAGMGRRLLLRSVQLHDSGNYSCYRAGRPAGTVHLLVDVPPEEPQLSCFRKSPLSNVVCEWGPRSTPSLTTKAVLLVRKFQNSPAEDFQEPCQYSQESQKFSCQLAVPEGDSSFYIVSMCVASSVGSKFSKTQTFQGCGILQPDPPANITVTAVARNPRQLSVTWQDPHSWNSSFYRLRFELRYRAERSKTFTTWMVKDLQHHCVIHDAWSGLRHVVQLRAQEEFGQGEWSEWSPEAMGTPWTESRSPPAENEVSTPMQALTTNKDDDNILFRDSANATSLPVQDSSSVPLPTFLVAGGSLAFGTLLCIAIVLRFKKTWKLRALKEGKTSMHPPYSLGQLVPERPRPTPVLVPLISPPVSPSSLGSDNTSSHNRPDARDPRSPYDISNTDYFFPR
- Binding [1]: 70%
- Signalling [2]: >150%

B7: V259: IL-6R V-N mutant at V259 (protein, UniProt P08887 20-468, looked up, variant V259N)
Interleukin-6 receptor …: LAPRRCPAQEVARGVLTSLPGDSVTLTCPGVEPEDNATVHWVLRKPAAGSHPSRWAGMGRRLLLRSVQLHDSGNYSCYRAGRPAGTVHLLVDVPPEEPQLSCFRKSPLSNVVCEWGPRSTPSLTTKAVLLVRKFQNSPAEDFQEPCQYSQESQKFSCQLAVPEGDSSFYIVSMCVASSVGSKFSKTQTFQGCGILQPDPPANITVTAVARNPRWLSVTWQDPHSWNSSFYRLRFELRYRAERSKTFTTWMVKDLQHHCNIHDAWSGLRHVVQLRAQEEFGQGEWSEWSPEAMGTPWTESRSPPAENEVSTPMQALTTNKDDDNILFRDSANATSLPVQDSSSVPLPTFLVAGGSLAFGTLLCIAIVLRFKKTWKLRALKEGKTSMHPPYSLGQLVPERPRPTPVLVPLISPPVSPSSLGSDNTSSHNRPDARDPRSPYDISNTDYFFPR
- Binding [1]: 40%
- Signalling [2]: 140%

B8: I260: IL-6R I-D mutation at I260 (protein, UniProt P08887 20-468, looked up, variant I260D)
Interleukin-6 receptor …: LAPRRCPAQEVARGVLTSLPGDSVTLTCPGVEPEDNATVHWVLRKPAAGSHPSRWAGMGRRLLLRSVQLHDSGNYSCYRAGRPAGTVHLLVDVPPEEPQLSCFRKSPLSNVVCEWGPRSTPSLTTKAVLLVRKFQNSPAEDFQEPCQYSQESQKFSCQLAVPEGDSSFYIVSMCVASSVGSKFSKTQTFQGCGILQPDPPANITVTAVARNPRWLSVTWQDPHSWNSSFYRLRFELRYRAERSKTFTTWMVKDLQHHCVDHDAWSGLRHVVQLRAQEEFGQGEWSEWSPEAMGTPWTESRSPPAENEVSTPMQALTTNKDDDNILFRDSANATSLPVQDSSSVPLPTFLVAGGSLAFGTLLCIAIVLRFKKTWKLRALKEGKTSMHPPYSLGQLVPERPRPTPVLVPLISPPVSPSSLGSDNTSSHNRPDARDPRSPYDISNTDYFFPR
- Binding [1]: 0%

B9: H261: IL-6R H-I mutation at H261 (protein, UniProt P08887 20-468, looked up, variant H261I)
Interleukin-6 receptor …: LAPRRCPAQEVARGVLTSLPGDSVTLTCPGVEPEDNATVHWVLRKPAAGSHPSRWAGMGRRLLLRSVQLHDSGNYSCYRAGRPAGTVHLLVDVPPEEPQLSCFRKSPLSNVVCEWGPRSTPSLTTKAVLLVRKFQNSPAEDFQEPCQYSQESQKFSCQLAVPEGDSSFYIVSMCVASSVGSKFSKTQTFQGCGILQPDPPANITVTAVARNPRWLSVTWQDPHSWNSSFYRLRFELRYRAERSKTFTTWMVKDLQHHCVIIDAWSGLRHVVQLRAQEEFGQGEWSEWSPEAMGTPWTESRSPPAENEVSTPMQALTTNKDDDNILFRDSANATSLPVQDSSSVPLPTFLVAGGSLAFGTLLCIAIVLRFKKTWKLRALKEGKTSMHPPYSLGQLVPERPRPTPVLVPLISPPVSPSSLGSDNTSSHNRPDARDPRSPYDISNTDYFFPR
- Binding [1]: 115%
- Signalling [2]: 10%

B10: D262: IL-6R D-G mutant at D262 (protein, UniProt P08887 20-468, looked up, variant D262G)
Interleukin-6 receptor …: LAPRRCPAQEVARGVLTSLPGDSVTLTCPGVEPEDNATVHWVLRKPAAGSHPSRWAGMGRRLLLRSVQLHDSGNYSCYRAGRPAGTVHLLVDVPPEEPQLSCFRKSPLSNVVCEWGPRSTPSLTTKAVLLVRKFQNSPAEDFQEPCQYSQESQKFSCQLAVPEGDSSFYIVSMCVASSVGSKFSKTQTFQGCGILQPDPPANITVTAVARNPRWLSVTWQDPHSWNSSFYRLRFELRYRAERSKTFTTWMVKDLQHHCVIHGAWSGLRHVVQLRAQEEFGQGEWSEWSPEAMGTPWTESRSPPAENEVSTPMQALTTNKDDDNILFRDSANATSLPVQDSSSVPLPTFLVAGGSLAFGTLLCIAIVLRFKKTWKLRALKEGKTSMHPPYSLGQLVPERPRPTPVLVPLISPPVSPSSLGSDNTSSHNRPDARDPRSPYDISNTDYFFPR
- Binding [1]: 30%
- Signalling [2]: <10%

B11: P162: IL-6R PE-LQ double mutant at P162 and E163, loop L3 (protein, UniProt P08887 20-468, looked up, variant P162L E163Q)
Interleukin-6 receptor …: LAPRRCPAQEVARGVLTSLPGDSVTLTCPGVEPEDNATVHWVLRKPAAGSHPSRWAGMGRRLLLRSVQLHDSGNYSCYRAGRPAGTVHLLVDVPPEEPQLSCFRKSPLSNVVCEWGPRSTPSLTTKAVLLVRKFQNSPAEDFQEPCQYSQESQKFSCQLAVLQGDSSFYIVSMCVASSVGSKFSKTQTFQGCGILQPDPPANITVTAVARNPRWLSVTWQDPHSWNSSFYRLRFELRYRAERSKTFTTWMVKDLQHHCVIHDAWSGLRHVVQLRAQEEFGQGEWSEWSPEAMGTPWTESRSPPAENEVSTPMQALTTNKDDDNILFRDSANATSLPVQDSSSVPLPTFLVAGGSLAFGTLLCIAIVLRFKKTWKLRALKEGKTSMHPPYSLGQLVPERPRPTPVLVPLISPPVSPSSLGSDNTSSHNRPDARDPRSPYDISNTDYFFPR
- Binding [1]: <10%
